The target of one data set is T1, H-D-Lys(CBO)-Pro-Arg-pNA.
T1 chain: KPR

Another data set has as its target T2, H-D-Pro-HHT-Arg-pNA.
T2 chain: PXR

Data set [1] deals with T3, Meo-Suc-Ala-Ala-Pro-Val-pNA.
T3 chain: AAPV

Another data set deals with T4, Suc-Ala-Ala-Pro-Phe-pNA.
T4 chain: AAPF

B1: PFEK-protease T-6xHIS zymogen (protein)
chain: MDSKGSSQKSRLLLLLVVSNLLLCQGVVSDYKDDDDVDAAALAAPFDDDDKIVGGYALEEGEWPWQVSIQRNGSHFCGGSLIAEQWVLTAAHCFRNTSETSLYQVLLGARQLVQPGPHAMYARVRQVESNPLYQGTASSADVALVELEAPVPFTNYILPVCLPDPSVIFETGMNCWVTGWGSPSEEDLLPEPRILQKLAVPIIDTPKCNLLYSKDTEFGYQPKTIKNDMLCAGFEEGKKDACKGDSGGPLVCLVGQSWLQAGVISWGEGCARQNRPGVYIRVTAHHNWIHRIIPKLQFQPARLGGQKSRHHHHHH
Regarding B1, the chromogenic amidolytic activity entry (with H-D-Lys(CBO)-Pro-Arg-pNA; with H-D-Pro-HHT-Arg-pNA; in data set [1]; in the data set with Suc-Ala-Ala-Pro-Phe-pNA) was “No measurable chromogenic amidolytic activity was detected” in each case.

B2: activated protease T-6xHIS (protein)
chain: MDSKGSSQKSRLLLLLVVSNLLLCQGVVSDYKDDDDVDAAALAAPFDDDDKIVGGYALEEGEWPWQVSIQRNGSHFCGGSLIAEQWVLTAAHCFRNTSETSLYQVLLGARQLVQPGPHAMYARVRQVESNPLYQGTASSADVALVELEAPVPFTNYILPVCLPDPSVIFETGMNCWVTGWGSPSEEDLLPEPRILQKLAVPIIDTPKCNLLYSKDTEFGYQPKTIKNDMLCAGFEEGKKDACKGDSGGPLVCLVGQSWLQAGVISWGEGCARQNRPGVYIRVTAHHNWIHRIIPKLQFQPARLGGQKSRHHHHHH
With B2, the Specific Activity (amidolytic, release of pNA) (nmole pNA produced/min/ug protein) turned out to be 0.057 with H-D-Lys(CBO)-Pro-Arg-pNA and 0.01 with H-D-Pro-HHT-Arg-pNA.

These data come from patent US20020146805.
